These results are taken from US20080107600A1 (published 2008).

For experiment [1], the target named is T1, DISC1-FLAG (full-length human DISC1 with a C-terminal FLAG tag) (human, UniProt Q9NRI5 1-854).
T1 construct: also called FLAG-tagged DISC1
T1 sequence: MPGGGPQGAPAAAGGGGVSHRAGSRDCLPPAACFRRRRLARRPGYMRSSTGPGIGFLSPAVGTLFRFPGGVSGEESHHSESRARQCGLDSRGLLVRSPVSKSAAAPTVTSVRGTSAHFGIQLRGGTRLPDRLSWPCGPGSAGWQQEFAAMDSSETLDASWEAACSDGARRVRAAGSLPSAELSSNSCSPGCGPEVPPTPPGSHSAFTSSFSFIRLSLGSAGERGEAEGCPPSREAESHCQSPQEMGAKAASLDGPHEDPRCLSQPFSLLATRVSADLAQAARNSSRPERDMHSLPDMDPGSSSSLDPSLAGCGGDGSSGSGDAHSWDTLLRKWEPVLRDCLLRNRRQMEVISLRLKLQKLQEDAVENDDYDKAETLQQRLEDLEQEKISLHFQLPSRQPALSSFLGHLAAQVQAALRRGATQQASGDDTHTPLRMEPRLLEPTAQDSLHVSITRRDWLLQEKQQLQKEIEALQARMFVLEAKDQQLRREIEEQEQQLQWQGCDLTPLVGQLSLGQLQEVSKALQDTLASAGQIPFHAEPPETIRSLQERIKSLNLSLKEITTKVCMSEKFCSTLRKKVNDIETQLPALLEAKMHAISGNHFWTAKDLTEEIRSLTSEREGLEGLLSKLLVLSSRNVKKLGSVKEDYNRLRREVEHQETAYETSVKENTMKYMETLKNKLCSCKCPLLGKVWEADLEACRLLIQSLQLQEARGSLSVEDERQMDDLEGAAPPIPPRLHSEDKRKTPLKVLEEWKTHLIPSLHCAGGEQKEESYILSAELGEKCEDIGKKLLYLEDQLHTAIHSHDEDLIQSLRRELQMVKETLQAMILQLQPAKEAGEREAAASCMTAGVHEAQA
Description: anti-FLAG immunoprecipitation from stable PC12 cells with or without NGF (50 ng/ml, 24 hours), blot with anti-FEZ1. On the procedure:
Stably DISC1-FLAG-expressing PC12 cells were stimulated with a nerve growth factor (NGF) (50 ng/ml) for 24 hours and collected. Lysates were immunoprecipitated by anti-FLAG antibody. Immunoprecipitated complexes were subjected to SDS-PAGE and blotted with anti-FEZ1 antibody. […] Cells were either unstimulated (b, e, h, k) or stimulated with NGF (50 ng/ml) for 24 hours (c, f, 1,1), and 48 hours (d, g, J, m) and their neurites were subsequently microscopically observed.
(§1) HEK293T cells were transfected with DISC1-FLAG and FEZ1-HA, individually or in combination. FLAG-tagged truncated forms of DISC1 mentioned in the Plasmids section were also transfected in combination with FEZ-HA. Cells were lysed in TNE buffer/1% NP40. Prepared lysates were incubated with anti-FLAG antibody for 2 hours at 4° C. and then with Protein Gagarose (Invitrogen) for 1 hour at 4° C. The agarose beads were then washed five times with TNE buffer. Immunoprecipitates were subjected to SDS-PAGE and blotted with anti-HA antibody. Conversely, immunoprecipitates with anti-HA antibody were blotted with anti-FLAG antibody. PC12 cells were transfected with FEZ1-HA or mock and then lysed in TNE buffer/1% NP40. Lysates were immunoprecipitated by anti-HA antibody. Immunoprecipitates were subjected to SDS-PAGE and blotted with anti-actin antibody. […]

For experiment [2], the target named is T2, DISC1/ΔBR-FLAG (deleted DISC1 that lacks the FEZ1-binding region, FLAG-tagged) (human, UniProt Q9NRI5 1-854).
T2 sequence: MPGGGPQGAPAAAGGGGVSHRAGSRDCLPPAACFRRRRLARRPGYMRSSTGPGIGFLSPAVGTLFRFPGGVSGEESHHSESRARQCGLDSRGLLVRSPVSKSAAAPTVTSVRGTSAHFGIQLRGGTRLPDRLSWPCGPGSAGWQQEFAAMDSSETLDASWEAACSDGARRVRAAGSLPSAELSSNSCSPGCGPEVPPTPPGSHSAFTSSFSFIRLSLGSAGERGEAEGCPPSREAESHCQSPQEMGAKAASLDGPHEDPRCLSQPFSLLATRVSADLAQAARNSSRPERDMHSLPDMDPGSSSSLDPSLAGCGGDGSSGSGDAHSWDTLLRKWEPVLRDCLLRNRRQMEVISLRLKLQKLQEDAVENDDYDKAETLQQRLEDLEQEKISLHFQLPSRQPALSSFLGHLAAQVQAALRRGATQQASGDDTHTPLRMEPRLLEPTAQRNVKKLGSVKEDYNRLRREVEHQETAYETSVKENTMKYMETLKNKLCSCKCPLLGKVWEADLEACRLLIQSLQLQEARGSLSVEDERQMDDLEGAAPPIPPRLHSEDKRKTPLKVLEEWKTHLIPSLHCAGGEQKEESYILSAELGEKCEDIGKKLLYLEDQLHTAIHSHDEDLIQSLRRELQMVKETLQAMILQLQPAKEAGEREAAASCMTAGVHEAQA
The experiment is described as follows: co-immunoprecipitation from transfected HEK293T cells, anti-FLAG / anti-HA. The protocol: (a) Yeast two-hybrid assay to determine the binding regions of FEZ1 (upper panel) and DISC1 (lower panel). Open bars indicate the FEZ1 clone obtained by the screening and DISC1 clone used as bait. Closed bars indicate shorter fragments. […] The α-galactosidase activity of yeast transformants were assayed. +++ indicates strongly positive as a positive control. ++, + and − indicate moderately positive, weakly positive and negative, respectively. (b) DISC1 coimmunoprecipitated with FEZ1. HEK293T cells were transfected with DISC1-FLAG and FEZ1-HA, individually or in combination. […] Immunoprecipitates by anti-FLAG or anti-HA antibody were blotted with the reciprocal antibody.
as §1, with “NP40.” for “NP40. Lysates were immunoprecipitated by anti-HA antibody. Immunoprecipitates were subjected to SDS-PAGE and blotted with anti-actin antibody.”

B1: endogenous FEZ1 of PC12 cells (other, rat, UniProt P97577 1-393, looked up)
chain: MEAPLVSLDEEFEDIRPCCTEDPEEKPQSLYGTSPHHLEDPSLSELENFSSEIISFKSMEDLVNEFDEKLNVCFRNYNAKTENLAPVKNQLQIQEEEETLRDEEVWDALTDNYIPSLSEDWRDPNIEALNGNSSDTEIHEKEEEDEFIEKSENDSGINEEPLLTADQVIEEIEEMMQNSPDPEEEVEVLEEEDGGEISSQADSVLLQEMQALTQTFNNNWSYEGLRHMSGSELTELLDQVEGAIRDFSEELVHQLARRDELEFEKEVKNSFITVLIEVQNKQKEQRELMKKRRKEKGLSLQSSRIEKGNQMPLKRFSMEGISNILQSGIRQTFGSSGADRQYLNTVIPYEKKSSPPSVEDLQMLTNILFAMKEDNEKVPTLLTDYILKVLCPT
For B1, the binding result in experiment [1] is “binds”.

B2: FEZ1-HA (human FEZ1 with a C-terminal HA tag) (other, not shown: small tags and cut ends)
chain: MEAPLVSLDEEFEDLRPSCSEDPEEKPQCFYGSSPHHLEDPSLSELENFSSEIISFKSMEDLVNEFDEKLNVCFRNYNAKTENLAPVKNQLQIQEEEETLQDEEVWDALTDNYIPSLSEDWRDPNIEALNGNCSDTEIHEKEEEEFNEKSENDSGINEEPLLTADQVIEEIEEMMQNSPDPEEEEEVLEEEDGGETSSQADSVLLQEMQALTQTFNNNWSYEGLRHMSGSELTELLDQVEGAIRDFSEELVQQLARRDELEFEKEVKNSFITVLIEVQNKQKEQRELMKKRRKEKGLSLQSSRIEKGNQMPLKRFSMEGISNILQSGIRQTFGSSGTDKQYLNTVIPYEKKASPPSVEDLQMLTNILFAMKEDNEKVPTLLTDYILKVLCPT
notes: Expressed from pcDNA3.1(+) in HEK293T or PC12 cells; also called HA-tagged FEZ1; FEZ-HA
Consider B2, for which the binding result in experiment [2] is on record as “no binding”.
